{"source": "patent US20110104667", "biological_target": "infectious prion protein PrPCWD (CWD prion, elk strain E2) (Cervus canadensis (elk)?) (UniProt P67986)", "sequence (P67986 25-233)": "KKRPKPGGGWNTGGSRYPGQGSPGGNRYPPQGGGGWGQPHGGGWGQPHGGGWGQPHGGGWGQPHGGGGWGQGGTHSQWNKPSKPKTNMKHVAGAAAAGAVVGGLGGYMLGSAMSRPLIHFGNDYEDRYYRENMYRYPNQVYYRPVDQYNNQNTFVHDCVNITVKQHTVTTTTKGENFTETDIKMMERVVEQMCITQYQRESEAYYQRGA", "assay": "EMSA", "design": "unit not given here", "data": [{"sequence": "TACGACTCACTATAGGGATCCNNNNNNNNNNNNNNNNNNNNNNNNNNNNGAATTCCCTTTAGTGAGGGTT [70-mer DNA randomer library, PrPCWD-retained fraction]", "values": [{"measurement": "Kd", "result": "6e-05"}]}]}
